In PMC2886353 (The Journal of Cell Biology, 2010):

B1: KIF17 (1-795)-3xmCit (domain or fragment, human, UniProt Q9P2E2-1 1-795, looked up)
chain: MASEAVKVVVRCRPMNQRERELRCQPVVTVDCARAQCCIQNPGAADEPPKQFTFDGAYHVDHVTEQIYNEIAYPLVEGVTEGYNGTIFAYGQTGSGKSFTMQGLPDPPSQRGIIPRAFEHVFESVQCAENTKFLVRASYLEIYNEDVRDLLGADTKQKLELKEHPEKGVYVKGLSMHTVHSVAQCEHIMETGWKNRSVGYTLMNKDSSRSHSIFTISIEMSAVDERGKDHLRAGKLNLVDLAGSERQSKTGATGERLKEATKINLSLSALGNVISALVDGRCKHVPYRDSKLTRLLQDSLGGNTKTLMVACLSPADNNYDETLSTLRYANRAKNIRNKPRINEDPKDALLREYQEEIKKLKAILTQQMSPSSLSALLSRQVPPDPVQVEEKLLPQPVIQHDVEAEKQLIREEYEERLARLKADYKAEQESRARLEEDITAMRNSYDVRLSTLEENLRKETEAVLQVGVLYKAEVMSRAEFASSAEYPPAFQYETVVKPKVFSTTDTLPSDDVSKTQVSSRFAELPKVEPSKSEISLGSSESSSLEETSVSEAFPGPEEPSNVEVSMPTEESRSRYFLDECLGQEAAGHLLGEQNYLPQEEPQEVPLQGLLGLQDPFAEVEAKLARLSSTVARTDAPQADVPKVPVQVPAPTDLLEPSDARPEAEAADDFPPRPEVDLASEVALEVVRTAEPGVWLEAQAPVALVAQPEPLPATAGVKRESVGMEVAVLTDDPLPVVDQQQVLARLQLLEQQVVGGEQAKNKDLKEKHKRRKRYADERRKQLVAALQNSDEDSGDW
B2: KIF17 (1-738)-3xmCit (domain or fragment, human, UniProt Q9P2E2-1 1-738, looked up)
chain: MASEAVKVVVRCRPMNQRERELRCQPVVTVDCARAQCCIQNPGAADEPPKQFTFDGAYHVDHVTEQIYNEIAYPLVEGVTEGYNGTIFAYGQTGSGKSFTMQGLPDPPSQRGIIPRAFEHVFESVQCAENTKFLVRASYLEIYNEDVRDLLGADTKQKLELKEHPEKGVYVKGLSMHTVHSVAQCEHIMETGWKNRSVGYTLMNKDSSRSHSIFTISIEMSAVDERGKDHLRAGKLNLVDLAGSERQSKTGATGERLKEATKINLSLSALGNVISALVDGRCKHVPYRDSKLTRLLQDSLGGNTKTLMVACLSPADNNYDETLSTLRYANRAKNIRNKPRINEDPKDALLREYQEEIKKLKAILTQQMSPSSLSALLSRQVPPDPVQVEEKLLPQPVIQHDVEAEKQLIREEYEERLARLKADYKAEQESRARLEEDITAMRNSYDVRLSTLEENLRKETEAVLQVGVLYKAEVMSRAEFASSAEYPPAFQYETVVKPKVFSTTDTLPSDDVSKTQVSSRFAELPKVEPSKSEISLGSSESSSLEETSVSEAFPGPEEPSNVEVSMPTEESRSRYFLDECLGQEAAGHLLGEQNYLPQEEPQEVPLQGLLGLQDPFAEVEAKLARLSSTVARTDAPQADVPKVPVQVPAPTDLLEPSDARPEAEAADDFPPRPEVDLASEVALEVVRTAEPGVWLEAQAPVALVAQPEPLPATAGVKRESVGMEVAVLTDDPLPVVDQ
B3: KIF17 (1-490)-3xmCit (domain or fragment, human, UniProt Q9P2E2-1 1-490, looked up)
chain: MASEAVKVVVRCRPMNQRERELRCQPVVTVDCARAQCCIQNPGAADEPPKQFTFDGAYHVDHVTEQIYNEIAYPLVEGVTEGYNGTIFAYGQTGSGKSFTMQGLPDPPSQRGIIPRAFEHVFESVQCAENTKFLVRASYLEIYNEDVRDLLGADTKQKLELKEHPEKGVYVKGLSMHTVHSVAQCEHIMETGWKNRSVGYTLMNKDSSRSHSIFTISIEMSAVDERGKDHLRAGKLNLVDLAGSERQSKTGATGERLKEATKINLSLSALGNVISALVDGRCKHVPYRDSKLTRLLQDSLGGNTKTLMVACLSPADNNYDETLSTLRYANRAKNIRNKPRINEDPKDALLREYQEEIKKLKAILTQQMSPSSLSALLSRQVPPDPVQVEEKLLPQPVIQHDVEAEKQLIREEYEERLARLKADYKAEQESRARLEEDITAMRNSYDVRLSTLEENLRKETEAVLQVGVLYKAEVMSRAEFASSAEYPPAF
B4: KIF17 (1-369)-3xmCit (domain or fragment, human, UniProt Q9P2E2-1 1-369, looked up)
chain: MASEAVKVVVRCRPMNQRERELRCQPVVTVDCARAQCCIQNPGAADEPPKQFTFDGAYHVDHVTEQIYNEIAYPLVEGVTEGYNGTIFAYGQTGSGKSFTMQGLPDPPSQRGIIPRAFEHVFESVQCAENTKFLVRASYLEIYNEDVRDLLGADTKQKLELKEHPEKGVYVKGLSMHTVHSVAQCEHIMETGWKNRSVGYTLMNKDSSRSHSIFTISIEMSAVDERGKDHLRAGKLNLVDLAGSERQSKTGATGERLKEATKINLSLSALGNVISALVDGRCKHVPYRDSKLTRLLQDSLGGNTKTLMVACLSPADNNYDETLSTLRYANRAKNIRNKPRINEDPKDALLREYQEEIKKLKAILTQQMS
B5: KIF17 (1-846)-3xmCit (domain or fragment, human, UniProt Q9P2E2-1 1-846, looked up)
chain: MASEAVKVVVRCRPMNQRERELRCQPVVTVDCARAQCCIQNPGAADEPPKQFTFDGAYHVDHVTEQIYNEIAYPLVEGVTEGYNGTIFAYGQTGSGKSFTMQGLPDPPSQRGIIPRAFEHVFESVQCAENTKFLVRASYLEIYNEDVRDLLGADTKQKLELKEHPEKGVYVKGLSMHTVHSVAQCEHIMETGWKNRSVGYTLMNKDSSRSHSIFTISIEMSAVDERGKDHLRAGKLNLVDLAGSERQSKTGATGERLKEATKINLSLSALGNVISALVDGRCKHVPYRDSKLTRLLQDSLGGNTKTLMVACLSPADNNYDETLSTLRYANRAKNIRNKPRINEDPKDALLREYQEEIKKLKAILTQQMSPSSLSALLSRQVPPDPVQVEEKLLPQPVIQHDVEAEKQLIREEYEERLARLKADYKAEQESRARLEEDITAMRNSYDVRLSTLEENLRKETEAVLQVGVLYKAEVMSRAEFASSAEYPPAFQYETVVKPKVFSTTDTLPSDDVSKTQVSSRFAELPKVEPSKSEISLGSSESSSLEETSVSEAFPGPEEPSNVEVSMPTEESRSRYFLDECLGQEAAGHLLGEQNYLPQEEPQEVPLQGLLGLQDPFAEVEAKLARLSSTVARTDAPQADVPKVPVQVPAPTDLLEPSDARPEAEAADDFPPRPEVDLASEVALEVVRTAEPGVWLEAQAPVALVAQPEPLPATAGVKRESVGMEVAVLTDDPLPVVDQQQVLARLQLLEQQVVGGEQAKNKDLKEKHKRRKRYADERRKQLVAALQNSDEDSGDWVLLNVYDSIQEEVRAKSKLLEKMQRKLRAAEVEIKDLQSEFQLEKIDYLAT

Target: the molecule itself
Assay: single-molecule step-wise photobleaching

Stoichiometry N, 2:
B1
B2
B3
B4
B5
